Data reported in patent US8187838B2, “β-Galactoside-α2, 6-sialyltransferase, a gene encoding thereof, and a method for producing thereof” (Japan Tobacco Inc., priority 2006, dated 2012).
“Also recorded” adds a separate entry of the source.

Experiments:
[1] = Sialyltransferase activity in homogenate of E. coli carrying the JT-ISH-224 gene clones (14C-NeuAc transfer to lactose); assay type: biochemical; conditions: crude enzyme solution from E. coli TB1
Description: (§1) Sialyltransferase activity was measured as described in J. Biochem., 120, 104-110 (1996) (which is hereby incorporated by reference in its entirety). More specifically, the enzymatic reaction was accomplished by using CMP-NeuAc (70 nmol, containing about 20,000 cpm CMP-NeuAc in which NeuAc was labeled with ^14C; NeuAc represents N-acetylneuraminic acid) as a glycosyl donor substrate, lactose (1.25 μmol) as a glycosyl acceptor substrate, NaCl added to give a concentration of 0.5 M, and the enzyme-containing reaction solution (30 μl) prepared as described above. The enzymatic reaction was carried out at 25° C. for about 10 to 180 minutes. After completion of the reaction, 1.97 ml of 5 mM phosphate buffer (pH 6.8) was added to the reaction solution, which was then applied to a Dowex 1×8 (PO4^3− form, 0.2×2 cm, BIO-RAD) column. The radioactivity was measured for the reaction product, i.e., sialyllactose contained in the eluate (0 to 2 ml) from this column to calculate the enzyme activity. One enzyme unit (1 U) is defined as the amount of enzyme required to transfer 1 micromole of sialic acid per minute.
An induction experiment of protein expression was performed on the five clones obtained in (3) above (i.e., ISH224-N0C0/pTrc, ISH224-N1C0/pTrc, ISH224-N2C0/pTrc, ISH224-N3C0/pTrc and ISH224-N3.1C0/pTrc). A single colony of E. coli TB1 having the expression vector pTrc99A carrying each clone was inoculated into LB medium (6 ml) containing an antibiotic, ampicillin (final concentration 100 μg/mL), and pre-cultured at 30° C. to about A600=0.5, followed by addition of IPTG (isopropyl-β-D(−)-thiogalactopyranoside, Wako Pure Chemical Industries, Ltd., Japan) at a final concentration of 1 mM. After culturing with shaking at 30° C. for an additional 4 hours, the cells in 4 ml culture solution were collected by centrifugation. These cells were suspended in 200 μl of 20 mM Bis-Tris buffer (pH 7.0) containing 0.336% Triton® X-100 and 0.5 M sodium chloride, and ultrasonically homogenized under ice cooling. The resulting homogenate was defined as a crude enzyme solution, diluted 200-fold with 20 mM cacodylate buffer (pH 5.0) containing 0.336% Triton® X-100, and then provided for activity measurement. The reaction was carried out in duplicate. The reaction conditions are as indicated in the footnotes of Tables 1-1 and 1-2.
(§2) Reaction Conditions Reaction composition:
Reaction time: 2 minutes Reaction temperature: 30° C.

[2] = Sialyltransferase activity of samples after each purification step; assay type: biochemical; conditions: for Specific activity (U/mg) / Total activity (U): cacodylate pH 5, 5 minutes, 30° C.
Description: as §1
(§3) The enzyme activity was measured by the method reported in J. Biochem. 120, 104-110 (1996), in the same manner as described in Example 1 under conditions as indicated in the footnote of Table 3-1. For protein quantification, a Coomassie Protein Assay Reagent (PIERCE) was used according to the instruction manual attached thereto. One enzyme unit (1U) was defined as the amount of enzyme required to transfer 1 micromole of sialic acid per minute.
Reaction time: 5 minutes Reaction temperature: 25° C.
as §3, with “3-2.” for “3-1.”
as §2
Reaction time: 5 minutes Reaction temperature: 30° C.

[3] = after MONO Q (purified fraction)

B1: ISH224-N3C0: truncated protein, SEQ ID NO: 12: methionine plus amino acids 111-514 of SEQ ID NO: 2 (protein, listed as Photobacterium sp.)
chain: MNVVAPSLEVYVDHASLPTLQQLMDIIKSEEENPTAQRYIAWGRIVPTDEQMKELNITSFALINNHTPADLVQEIVKQAQTKHRLNVKLSSNTAHSFDNLVPILKELNSFNNVTVTNIDLYDDGSAEYVNLYNWRDTLNKTDNLKIGKDYLEDVINGINEDTSNTGTSSVYNWQKLYPANYHFLRKDYLTLEPSLHELRDYIGDSLKQMQWDGFKKFNSKQQELFLSIVNFDKQKLQNEYNSSNLPNFVFTGTTVWAGNHEREYYAKQQINVINNAINESSPHYLGNSYDLFFKGHPGGGIINTLIMQNYPSMVDIPSKISFEVLMMTDMLPDAVAGIASSLYFTIPAEKIKFIVFTSTETITDRETALRSPLVQVMIKLGIVKEENVLFWADLPNCETGVCIAV
[1]
  sialyltransferase activity of the expressed clone (in words): smallest clone that retained the activity
[1]; listed as ISH224-N3C0/pTrc
  sialyltransferase activity of the expressed clone (in words): expressed sialyltransferase; also recorded: retained the activity
[2]; Crude enzyme solution
  Specific activity (U/mg): 2.0 U/mg
  Total activity (U): 4911 U
[2]; after Hydroxyapatite
  Specific activity (U/mg): 151 U/mg
  Total activity (U): 997 U
[2]; [3]
  Specific activity (U/mg): 264 U/mg
  Total activity (U): 808 U
[2]; after Q SEPHAROSE
  Specific activity (U/mg): 26.5 U/mg
  Total activity (U): 3614 U
[2]; purified fraction
  fold higher specific activity than Pasteurella multocida-derived β-galactoside-α2,3-sialyltransferase (60 U/mg): about 4.4 fold
  fold higher specific activity than β-galactoside-α2,6-sialyltransferase derived from Photobacterium damselae strain JT0160 (5.5 U/mg): about 48 fold
